Measurements: patent US20160354479A1 (ESBATECH AN ALCON BIOMEDICAL RESEARCH UNIT, published 2016)

Assays:
[1] = target: T1, Human TNF alpha (human, UniProt P01375 77-233); test: direct ELISA on coated human TNF alpha, detection with biotinylated rabbit anti-ESBA105 antibody and streptavidin poly-HRP, OD 450 nm
T1 construct: Coated on the ELISA plate
Experimental: Binding of ESBA105 and its derivatives was assessed by a direct ELISA. Human TNF alpha (PeproTech EC Ltd) was coated on a 96-well microtitre plate and then blocked using BSA (bovine serum albumin). ESBA105 and ESBA105 derivates were tested at concentrations of 50 nM, 12.5 nM, 3.13 nM, 1.56 nM, 0.78 nM, 0.39 nM, 0.20 nM, 0.10 nM and 0.05 nM. Binding of ESBA105 and its derivatives to human TNF alpha was visualized by the subsequent addition of a biotinylated rabbit polyclonal anti-ESBA105 antibody (AK3A, generated at ESBATech), streptavidin Poly HRP and a chromogenic substrate (POD). The product of this reaction was detected by measurement of the optical densitiy (OD) at […] using a spectrophotometer. Data were analyzed using a 4-parameter logistic curve fit, and EC₅₀ values were calculated from the dose-response curves of the scFvs.

[2] = target: T2, recombinant human VEGF165 (human, UniProt P15692-4 27-191); test: SPR, BIAcore T100, hVEGF165 immobilized, 1:1 fit (FIG. 7A)
T2 construct: Amine-coupled to a CM4 sensor chip; also called hVEGF165
T2 sequence (P15692 other isoform, or with tags, fused parts or gaps limits assumed): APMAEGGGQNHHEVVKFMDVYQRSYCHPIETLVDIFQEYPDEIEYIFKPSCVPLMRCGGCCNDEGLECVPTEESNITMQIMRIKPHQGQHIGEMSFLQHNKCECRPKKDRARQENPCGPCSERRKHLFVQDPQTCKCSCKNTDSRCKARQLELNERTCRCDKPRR
Description: (§1) For binding affinity measurements, surface Plasmon resonance measurements with BIAcore™-T100 were employed. In these experiments, purified Escherichia coli-expressed recombinant human VEGF₁₆₅ (PeproTech EC Ltd) was used. Carboxymethylated dextran biosensor chips (CM4, GE Healthcare) were activated with N-ethyl-N′-(3-dimethylaminopropyl)carbodiimide hydrochloride and N-hydroxysuccinimide according to the supplier's instructions. Human VEGF₁₆₅ was coupled to 1 of the 4 different flow cells on a CM4 sensor chip using a standard amine-coupling procedure. The range of responses obtained with the immobilized hVEGF₁₆₅ molecule after coupling and blocking was approximately 120-140 response units (RU). The 4th flow cell of each chip was treated similarly except no proteins were immobilized prior to blocking, and the flow cell was used as in-line reference. Various concentrations of anti-VEGF scFvs (20 nM, 10 nM, 5 nM, 2.5 nM, 1.25 nM, 0.63 nM, 0.31 nM and 0.16 nM) in HBS-EP buffer (0.01 M HEPES, pH 7.4, 0.15 M NaCl, 3 mM EDTA, 0.005% surfactant P20) were injected into the flow cells at a flow rate of 30 μl/min for 5 min. Dissociation of the anti-VEGF scFv from the VEGF on the CM4 chip was allowed to proceed for 10 min at 25° C. Sensorgrams were generated for each anti-VEGF scFv sample after in-line reference cell correction followed by buffer sample subtraction. The apparent dissociation rate constant (kd), the apparent association rate constant (kₐ) and the apparent dissociation equilibrium constant (KD) were calculated using one-to-one Langmuir binding model with BlAcore T100 evaluation Software version 1.1.

[3] = target: T2, recombinant human VEGF165; test: SPR, BIAcore T100, hVEGF165 immobilized, 1:1 fit (FIG. 7B)
Description: as §1, with “Dissociation of the anti-VEGF scFv from the VEGF on the CM4 chip was allowed to proceed for 10 min at 25° C. Sensorgrams were generated for each anti-VEGF scFv sample after in-line reference cell correction followed by buffer sample subtraction.” left out

[4] = target: T2, recombinant human VEGF165; test: SPR, BIAcore T100, hVEGF165 immobilized
Description: as §1, with “Dissociation of the anti-VEGF scFv from the VEGF on the CM4 chip was allowed to proceed for 10 min at 25° C. Sensorgrams were generated for each anti-VEGF scFv sample after in-line reference cell correction followed by buffer sample subtraction.” left out

T1 sequence (P01375 77-233 limits assumed): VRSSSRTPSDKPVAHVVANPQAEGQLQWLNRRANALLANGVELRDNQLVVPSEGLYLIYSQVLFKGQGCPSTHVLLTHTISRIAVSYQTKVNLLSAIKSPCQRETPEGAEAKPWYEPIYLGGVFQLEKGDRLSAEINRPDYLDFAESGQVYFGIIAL

B1: ESBA105-SS-linker (scFv)
scFv: MADIVMTQSPSSLSASVGDRVTLTCTASQSVSNDVVWYQQRPGKAPKLLIYSAFNRYTGVPSRFSGRGYGTDFTLTISSLQPEDVAVYYCQQDYNSPRTFGQGTKLEVKRGGGGSGGGGSCGGGSGGGCGGGGSGGGGSQVQLVQSGAEVKKPGASVKVSCTASGYTFTHYGMNWVRQAPGKGLEWMGWINTYTGEPTYADKFKDRFTFSLETSASTVYMELTSLTSDDTAVYYCARERGDAMDYWGQGTLVTVSS
notes: un-pegylated
Q: How did the “EC50 (read off the curve)” value [1] turn out when B1 was run?
A: The value was roughly 1 nM.

B2: ESBA105 (scFv)
scFv: MADIVMTQSPSSLSASVGDRVTLTCTASQSVSNDVVWYQQRPGKAPKLLIYSAFNRYTGVPSRFSGRGYGTDFTLTISSLQPEDVAVYYCQQDYNSPRTFGQGTKLEVKRGGGGSGGGGSGGGGSSGGGSQVQLVQSGAEVKKPGASVKVSCTASGYTFTHYGMNWVRQAPGKGLEWMGWINTYTGEPTYADKFKDRFTFSLETSASTVYMELTSLTSDDTAVYYCARERGDAMDYWGQGTLVTVSS
notes: Untreated scFv (VL-linker-VH), made in E. coli; also called ESBA105 Normal linker; naked ESBA105
Q: For B2, which “EC50 (read off the curve)” value [1] is on record?
A: Its value is roughly 1 nM.

B3: ESBA903 (scFv)
scFv: MEIVMTQSPSTLSASVGDRVIITCQASEIIHSWLAWYQQKPGKAPKLLIYLASTLASGVPSRFSGSGSGAEFTLTISSLQPDDFATYYCQNVYLASTNGANFGQGTKLTVLGGGGGSGGGGSGGGGSGGGGSEVQLVESGGGLVQPGGSLRLSCTASGFSLTDYYYMTWVRQAPGKGLEWVGFIDPDDDPYYATWAKGRFTISRDTSKNTVYLQMNSLRAEDTAVYYCAGGDHNSGWGLDIWGQGTLVTVSS
notes: Anti-VEGF scFv; also called ESBA903 Normal linker; unmodified ESBA903
Q: What does the source list for B3?
A: Kd [2]: 0.0561 nM; koff [2]: 4.31e-05 s⁻¹; kon [2]: 768000 M⁻¹ s⁻¹

B4: ESBA903 SS Pep1 linker (scFv)
scFv: MEIVMTQSPSTLSASVGDRVIITCQASEIIHSWLAWYQQKPGKAPKLLIYLASTLASGVPSRFSGSGSGAEFTLTISSLQPDDFATYYCQNVYLASTNGANFGQGTKLTVLGGGGGSGGGGSCGAHWQFNALTVRCGGGGSGGGGSEVQLVESGGGLVQPGGSLRLSCTASGFSLTDYYYMTWVRQAPGKGLEWVGFIDPDDDPYYATWAKGRFTISRDTSKNTVYLQMNSLRAEDTAVYYCAGGDHNSGWGLDIWGQGTLVTVSS
notes: also called ESBA903-Pep1
Q: Which koff [3] does the source give for B4 here?
A: The koff was 5.03e-05 s⁻¹.

Q: And the kon [3]?
A: Its kon is 1.13e+06 M⁻¹ s⁻¹.

Q: And the Kd [4]?
A: The Kd was 0.0444 nM.
